What was measured:
[1] = biological target: RIIα (type IIα regulatory subunit of PKA), wild type, RIIα-6xHis (mouse) (UniProt P12367); assay: native gel or EMSA; SEC peak fraction on precast 3–8% Tris-Acetate native gels, 50 mM Tris pH 8.3, 50 mM Tricine, silver staining
[2] = biological target: PKA holoenzyme (PKA_(holo)) formed by wild-type RIIα and PKAc (mouse) (UniProt P12367); assay: as above
[3] = biological target: AKAP18γ (human γ isoform of AKAP18), strep-II and 6xHis tagged (human)

AKAP18γ–GFP (human), sequence (Q9P0M2 whole entry): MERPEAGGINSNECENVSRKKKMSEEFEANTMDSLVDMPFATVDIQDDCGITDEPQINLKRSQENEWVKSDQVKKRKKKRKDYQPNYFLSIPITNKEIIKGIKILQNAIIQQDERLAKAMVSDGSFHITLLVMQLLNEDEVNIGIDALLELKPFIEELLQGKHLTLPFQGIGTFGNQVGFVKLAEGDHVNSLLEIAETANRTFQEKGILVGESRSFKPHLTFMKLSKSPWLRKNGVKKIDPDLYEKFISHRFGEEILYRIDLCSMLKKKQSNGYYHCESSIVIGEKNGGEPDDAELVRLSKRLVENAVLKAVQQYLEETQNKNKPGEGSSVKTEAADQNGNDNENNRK

**Q.** With “RIIα (type IIα regulatory subunit of PKA), wild type, RIIα-6xHis (from UniProt P12367 1-401) (natural protein; other documents disagree on this pair)” as the substance, how does the stoichiometry N [1] read?
**A.** The stoichiometry N was 2 subunits.

**Q.** “AKAP18γ (human γ isoform of AKAP18), strep-II and 6xHis tagged (natural protein)” was tested. Which stoichiometry N (AKAP18γ per RIIα dimer with two PKAc) [2] did it give?
**A.** The stoichiometry N (AKAP18γ per RIIα dimer with two PKAc) was 1.

**Q.** For “PDE4D (type 4 phosphodiesterase isoforms PDE4D3 / PDE4D5) (enzyme)”, which basal (cAMP-independent) 32P incorporation into PDE4D by PKA holoenzyme with against without AKAP18γ, autoradiography; the substrate here was purified MBP-PDE4D3 [3] is on record?
**A.** The basal (cAMP-independent) 32P incorporation into PDE4D by PKA holoenzyme with against without AKAP18γ, autoradiography; the substrate here was purified MBP-PDE4D3 was 1.87 fold.

**Q.** And the cAMP phosphodiesterase activity in anti-GFP immune complexes from HEK293 cells, fold over GFP controls or rolipram-treated samples (AKAP18γ–GFP (human))?
**A.** The cAMP phosphodiesterase activity in anti-GFP immune complexes from HEK293 cells, fold over GFP controls or rolipram-treated samples was 3.27 fold.

From paper PMC3814001
